Test results published in PMC8608799, “The main oxidative inactivation pathway of the plant hormone auxin” (Nature Communications, 2021).

What was measured:
[1] = substrate: O=C(O)CC[C@H](NC(=O)Cc1c[nH]c2ccccc12)C(=O)O; assay: HPLC of oxidised product, Michaelis-Menten; assay type: biochemical, Arabidopsis thaliana; settings: 0.5 mM 2-oxoglutarate, 2 μM Fe(II), 5 mM ascorbate, 50 mM potassium phosphate pH 7.2, 30 °C
[2] = substrate: O=C(O)C[C@H](NC(=O)Cc1c[nH]c2ccccc12)C(=O)O; assay: HPLC of oxidised product, Michaelis-Menten; assay type: biochemical, Arabidopsis thaliana; settings: 0.5 mM 2-oxoglutarate, 2 μM Fe(II), 5 mM ascorbate, 50 mM potassium phosphate pH 7.2, 30 °C

B1: AtDAO1 (Arabidopsis thaliana) (protein)
chain: MGELNGVIIPTIDLEEVSDKILNQKIREASERWGCFRVINHGVSLSLMAEMKKTVIDLFQRPYEVKVRNTDVLLGSGYRAPNEINPYYEALGLYDMASPHAVNTFCDQLEASADQREIMVKYAKAINGLATDLARKLAESYGLVETDFFKEWPSQFRINKYHFKPETVGKLGVQLHTDSGFLTILQDDENVGGLEAMDNSSGTFFPIDPLPNTLAINLGDMATIWSNGRLCNVKHRVQCKEATMRYSIASFLLGPMDTDLEPPSEFVDAEHPRLYKPISHEGVRNIRMTKKLHDGEALKLITHAGLDK
notes: full-length ORF in pCold I, N-terminal His tag kept, E. coli BL21, TALON purified
Work on B1 yielded a Km [1] of 9.4 µM and a Km [2] of 13.5 µM.
